Legend:
24P4C12 (human) [1] = biological target: 24P4C12 (human) (UniProt Q53GD3); assay: FACS on LNCaP cells, ADC at 106.667 nM, anti-hIgG-PE detection
24P4C12 (human) [2] = biological target: 24P4C12 (human) (UniProt Q53GD3); assay: FACS on LNCaP cells, ADC at 0.098 nM, anti-hIgG-PE detection
24P4C12 (human) [3] = biological target: 24P4C12 (human) (UniProt Q53GD3); assay: FACS saturation binding on LNCaP cells with endogenous 24P4C12, one site binding fit
24P4C12 (human) [4] = biological target: 24P4C12 (human) (UniProt Q53GD3); assay: FACS on LNCaP cells, ADC at 7.901 nM, anti-hIgG-PE detection
24P4C12 (human) [5] = biological target: 24P4C12 (human) (UniProt Q53GD3); assay: FACS on LNCaP cells, ADC at 0.878 nM, anti-hIgG-PE detection
24P4C12 (human) [6] = biological target: 24P4C12 (human) (UniProt Q53GD3); assay: FACS on LNCaP cells, ADC at 23.704 nM, anti-hIgG-PE detection
24P4C12 (human) [7] = biological target: 24P4C12 (human) (UniProt Q53GD3); assay: FACS on LNCaP cells, ADC at 2.634 nM, anti-hIgG-PE detection
24P4C12 (human) [8] = biological target: 24P4C12 (human) (UniProt Q53GD3); assay: FACS on LNCaP cells, ADC at 0.011 nM, anti-hIgG-PE detection
24P4C12 (human) [9] = biological target: 24P4C12 (human) (UniProt Q53GD3); assay: FACS on LNCaP cells, ADC at 160.000 nM, anti-hIgG-PE detection
24P4C12 (human) [10] = biological target: 24P4C12 (human) (UniProt Q53GD3); assay: FACS on LNCaP cells, ADC at 0.293 nM, anti-hIgG-PE detection
24P4C12 (human) [11] = biological target: 24P4C12 (human) (UniProt Q53GD3); assay: FACS on LNCaP cells, ADC at 0.033 nM, anti-hIgG-PE detection
24P4C12 (human) [12] = biological target: 24P4C12 (human) (UniProt Q53GD3); assay: FACS on LNCaP cells, ADC at 71.111 nM, anti-hIgG-PE detection

UniProt Q53GD3, sequence (Q53GD3 whole entry): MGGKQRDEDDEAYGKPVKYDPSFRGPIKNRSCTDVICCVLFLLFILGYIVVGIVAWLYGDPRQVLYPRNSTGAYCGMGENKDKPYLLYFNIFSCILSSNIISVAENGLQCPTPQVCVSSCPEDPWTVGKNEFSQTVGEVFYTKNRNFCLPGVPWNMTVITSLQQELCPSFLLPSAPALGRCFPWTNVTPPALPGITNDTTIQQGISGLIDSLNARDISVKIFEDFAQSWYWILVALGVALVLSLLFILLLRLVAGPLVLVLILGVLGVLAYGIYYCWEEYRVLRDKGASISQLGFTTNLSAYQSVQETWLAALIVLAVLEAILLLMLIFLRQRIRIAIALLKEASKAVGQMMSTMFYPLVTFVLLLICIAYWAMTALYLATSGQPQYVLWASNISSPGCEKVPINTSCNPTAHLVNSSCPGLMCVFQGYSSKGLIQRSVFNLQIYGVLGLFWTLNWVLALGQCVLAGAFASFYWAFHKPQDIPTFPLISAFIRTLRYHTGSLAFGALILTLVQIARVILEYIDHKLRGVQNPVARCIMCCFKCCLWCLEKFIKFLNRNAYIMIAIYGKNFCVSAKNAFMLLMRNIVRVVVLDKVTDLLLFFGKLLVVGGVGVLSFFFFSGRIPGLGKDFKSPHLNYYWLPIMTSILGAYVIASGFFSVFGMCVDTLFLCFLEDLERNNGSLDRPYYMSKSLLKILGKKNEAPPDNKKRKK

B1: Ha5-1(5)2.1vcMMAE (antibody, human IgG2, kappa, V domains shown)
VH: QVQLVESGGGVVQPGRSLRLSCAASGFTFSSYGMHWVRQAPGKGLEWVAVMSYDGSKKFYTDSVKGRFTISRDNSKNTLYLQMNSLRAEDTAVYYCARDGGDYVRYHYYGMDVWGQGTTVTVSS
VL: DIQMTQSPSTLSASIGDRVTITCRASQGISYYLAWYQQKPGKIPKLLIYDTSSLQSGVPSRFSGSRSGTDLSLTISSLQPEDVATYYCQRYDSAPLTFGGGTKVEIKR
modifications: vcMMAE (Val-Cit linker with monomethyl auristatin E) on cysteine thiols freed by partial reduction with TCEP; p about 3.6 drugs per antibody; positions not given
Work on B1 yielded an MFI (24P4C12 (human) [1]) of 114 MFI, an MFI (24P4C12 (human) [2]) of 15 MFI and a Kd (24P4C12 (human) [3]) of 1.05 nM. It also gave an MFI (24P4C12 (human) [4]) of 86 MFI, an MFI (24P4C12 (human) [5]) of 54 MFI and an MFI (24P4C12 (human) [6]) of 97 MFI. It also gave an MFI (24P4C12 (human) [7]) of 70 MFI, an MFI (24P4C12 (human) [8]) of 7 MFI and an MFI (24P4C12 (human) [9]) of 116 MFI. It also gave an MFI (24P4C12 (human) [10]) of 28 MFI, an MFI (24P4C12 (human) [11]) of 9 MFI and an MFI (24P4C12 (human) [12]) of 108 MFI.
